The target of assay [1] is T1, ET140-p26 (human).
T1 sequence (peptide, N-terminal biotin): SGSGRCSSNTPPLTCQRYC
Put plainly: peptide ELISA on streptavidin plate, antibody 1 ug/mL. Background: In an ELISA, binding on a coated surface is turned into a signal by an enzyme label.

Assay [2] has as its target T2, ET140-p25 (human).
T2 sequence (peptide, N-terminal biotin): SGSGLRCSSNTPPLTCQRY
The description is as above.

Turning to 901mIgG (antibody), the results for the A450 in assay [1] and in assay [2] were 0.162 and 0.492, respectively.

The values are drawn from patent US20210346432A1.
